This passage reports Kd, binding result and EC50 results from patent US20260284212 (published 2026).

For experiment [1], the target named is T1, human CD6 (human, UniProt P30203).
T1 chain: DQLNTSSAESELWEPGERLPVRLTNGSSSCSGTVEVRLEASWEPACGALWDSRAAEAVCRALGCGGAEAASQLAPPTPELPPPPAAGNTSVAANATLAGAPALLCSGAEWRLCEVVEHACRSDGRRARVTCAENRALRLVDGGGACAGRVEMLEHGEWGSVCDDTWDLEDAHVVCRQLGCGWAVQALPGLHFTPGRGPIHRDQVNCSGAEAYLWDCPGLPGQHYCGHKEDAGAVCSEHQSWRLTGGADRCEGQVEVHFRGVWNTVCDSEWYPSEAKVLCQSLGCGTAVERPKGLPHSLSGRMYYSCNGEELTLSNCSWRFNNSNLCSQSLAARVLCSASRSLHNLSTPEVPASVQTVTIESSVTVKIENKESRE

Another experiment deals with T2, human CD5 (human, UniProt P06127).
T2 chain: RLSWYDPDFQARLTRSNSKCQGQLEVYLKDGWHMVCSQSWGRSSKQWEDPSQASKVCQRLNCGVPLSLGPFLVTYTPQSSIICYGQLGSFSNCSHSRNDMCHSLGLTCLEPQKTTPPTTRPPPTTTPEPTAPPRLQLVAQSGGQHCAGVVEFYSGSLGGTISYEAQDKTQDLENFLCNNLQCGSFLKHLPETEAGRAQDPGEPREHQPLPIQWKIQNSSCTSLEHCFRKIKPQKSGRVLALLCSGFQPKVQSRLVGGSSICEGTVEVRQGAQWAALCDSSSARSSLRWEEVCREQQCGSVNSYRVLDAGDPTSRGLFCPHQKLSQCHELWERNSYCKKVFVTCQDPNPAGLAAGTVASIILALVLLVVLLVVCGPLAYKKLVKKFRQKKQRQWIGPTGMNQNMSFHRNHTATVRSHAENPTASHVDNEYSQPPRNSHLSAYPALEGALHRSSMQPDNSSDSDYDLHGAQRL
As to the kind of experiment: ELISA. A general note: In an ELISA, binding on a coated surface is turned into a signal by an enzyme label.

Experiment [2] concerns the target T1, human CD6. Put plainly: ELISA.

B1: A1CD601 VHH HuG1Fc (chimeric) (antibody, V domains shown)
VH: QVQLQESGGGLVQAGGSLRLSCTASERTFSDYALGWFRQGPGKEREFVAAINWVGGSTYYADSVKGRFTISRDNAKNTLLLQMNSLKPEDTAVYFCVASWGAMPVLTHVINYWGKGTQVTVSS
The term Kd denotes a measure of binding affinity in units of concentration. Read a high Kd as weaker binding. For orientation: EC50 means the concentration at which the effect is half-maximal. Molecule B1 had an equilibrium dissociation constant (Kd) with human CD6 [1] of 0.21 nM. Moreover, in the experiment with human CD5, the binding result is “no binding”. The EC50 with human CD6 [2] is 0.053 nM.

B2: CD601HH12 HuG1Fc (antibody, V domains shown)
VH: QVQLVESGGGLVQPGGSLRLSCTASERTFSDYALGWFRQAPGKEREFVAAINWVGGSTYYADSVKGRFTISRDNSKNTLYLQMNSLRAEDTAVYYCVASWGAMPVLTHVINYWGKGTLVTVSS
For B2, binding in the experiment with human CD6 [1] was put at a Kd of 0.222 nM. Also, the binding result with human CD5 was “no binding”. It took 0.05 nM to reach a half-maximal effect with human CD6 [2] (EC50).

B3: CD601HH10 HuG1Fc (antibody, V domains shown)
VH: QVQLQESGGGLVQPGGSLRLSCSASERTFSDYALGWFRQAPGKEREFVAAINWVGGSTYYADSVKGRFTISRDNSKNTLYLQMNSLRAEDTAVYYCVASWGAMPVLTHVINYWGKGTLVTVSS
B3 yielded a Kd with human CD6 [1] of 0.247 nM. Besides, the binding result with human CD5 was “no binding”. A half-maximal effect with human CD6 [2] (EC50) was put at 0.066 nM.

B4: CD601HH14 HuG1Fc (antibody, V domains shown)
VH: QVQLVESGGGLVQPGGSLRLSCSASERTFSDYALGWFRQAPGKEREFVAAINWVGGSTYYADSVKGRFTISRDNAKNTLYLQMNSLRAEDTAVYYCVASWGAMPVLTHVINYWGKGTLVTVSS
In the experiment with human CD6 [1], B4 gave a Kd of 0.269 nM. The binding result with human CD5 was “no binding”. In addition, the EC50 in the experiment with human CD6 [2] turned out to be 0.053 nM.

B5: CD601HH8 HuG1Fc (antibody, V domains shown)
VH: QVQLVESGGGLVQPGGSLRLSCSASERTFSDYAMGWFRQAPGKEREFVAAINWVGGSTYYADSVKGRFTISRDNSKNTLYLQMNSLRAEDTAVYYCVASWGAMPVLTHVINYWGKGTLVTVSS
In the experiment with human CD6 [1], B5 gave a Kd of 0.24 nM. Also, the binding result with human CD5 was “no binding”. In the experiment with human CD6 [2], this molecule yielded an EC50 of 0.053 nM.
